Source: the supplement of paper PMC9112550, “Optimization of the antimicrobial peptide Bac7 by deep mutational scanning” (BMC Biology, 2022)

tested on: Escherichia coli TOP10; assay: shrunken log2 fold change of peptide-encoding DNA abundance (4.5 h post-induction vs induction); higher = less antimicrobial activity (less host growth inhibition); details: time post-induction: 4.5 h; library: site-saturation at positions 5, 18, 19, 20
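Further: peptides expressed intracellularly from a pBAD plasmid library in pooled LB shake-flask culture, induced with 0.3% L-arabinose, DNA abundance read by NGS, three biological replicates, DESeq2 with apeglm shrinkage.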

Row | Sequence | shrunken log2 fold change
1 | RRIRPRPPRLPRPRPRPGTLPRP | 0.0426
2 | RRIRPRPPRLPRPRPRPGTVPRP | -0.182
3 | RRIRPRPPRLPRPRPRPGTYPRP | -0.147
4 | RRIRPRPPRLPRPRPRPGVMPRP | 0.0104
5 | RRIRPRPPRLPRPRPRPGVNPRP | -0.342
6 | RRIRPRPPRLPRPRPRPGVQPRP | 0.336
7 | RRIRPRPPRLPRPRPRPGWHPRP | 0.248
8 | RRIRPRPPRLPRPRPRPGYEPRP | -0.172
9 | RRIRPRPPRLPRPRPRPGYFPRP | -0.0323
10 | RRIRPRPPRLPRPRPRPGYWPRP | 0.278
11 | RRIRPRPPRLPRPRPRPHCIPRP | -0.325
12 | RRIRPRPPRLPRPRPRPHCRPRP | -0.198
13 | RRIRPRPPRLPRPRPRPHDMPRP | -1.48
14 | RRIRPRPPRLPRPRPRPHDRPRP | -0.0974
15 | RRIRPRPPRLPRPRPRPHHGPRP | 0.0245
16 | RRIRPRPPRLPRPRPRPHKAPRP | 0.0705
17 | RRIRPRPPRLPRPRPRPHKFPRP | -0.547
18 | RRIRPRPPRLPRPRPRPHLEPRP | -0.122
19 | RRIRPRPPRLPRPRPRPHMDPRP | -0.374
20 | RRIRPRPPRLPRPRPRPHMEPRP | -0.0417
21 | RRIRPRPPRLPRPRPRPHNCPRP | -0.111
22 | RRIRPRPPRLPRPRPRPHNMPRP | -0.745

Row | Sequence | shrunken log2 fold change
23 | RRIRPRPPRLPRPRPRPHNSPRP | -0.454
24 | RRIRPRPPRLPRPRPRPHPHPRP | 0.0281
25 | RRIRPRPPRLPRPRPRPHPKPRP | 0.347
26 | RRIRPRPPRLPRPRPRPHQGPRP | -0.213
27 | RRIRPRPPRLPRPRPRPHQVPRP | 0.341
28 | RRIRPRPPRLPRPRPRPHRFPRP | 0.645
29 | RRIRPRPPRLPRPRPRPHRQPRP | -0.149
30 | RRIRPRPPRLPRPRPRPHSAPRP | 0.31
31 | RRIRPRPPRLPRPRPRPHSFPRP | -0.0599
32 | RRIRPRPPRLPRPRPRPHSVPRP | -0.213
33 | RRIRPRPPRLPRPRPRPHTDPRP | -0.327
34 | RRIRPRPPRLPRPRPRPHTPPRP | -0.0561
35 | RRIRPRPPRLPRPRPRPHTTPRP | 0.0817
36 | RRIRPRPPRLPRPRPRPHWCPRP | -0.159
37 | RRIRPRPPRLPRPRPRPHWHPRP | -0.124
38 | RRIRPRPPRLPRPRPRPHWWPRP | 0.507
39 | RRIRPRPPRLPRPRPRPHYVPRP | -0.348
40 | RRIRPRPPRLPRPRPRPIADPRP | 0.0705
41 | RRIRPRPPRLPRPRPRPIAKPRP | 0.0454
42 | RRIRPRPPRLPRPRPRPIAPPRP | 0.265
43 | RRIRPRPPRLPRPRPRPICFPRP | -0.189
44 | RRIRPRPPRLPRPRPRPICLPRP | 2.37

Row | Sequence | shrunken log2 fold change
45 | RRIRPRPPRLPRPRPRPIDEPRP | -0.0401
46 | RRIRPRPPRLPRPRPRPIEHPRP | -0.186
47 | RRIRPRPPRLPRPRPRPIFKPRP | -0.0374
48 | RRIRPRPPRLPRPRPRPIFQPRP | 0.0149
49 | RRIRPRPPRLPRPRPRPIGSPRP | 0.0547
50 | RRIRPRPPRLPRPRPRPIHHPRP | -0.454
51 | RRIRPRPPRLPRPRPRPIHIPRP | -0.405
52 | RRIRPRPPRLPRPRPRPIKIPRP | -0.319
53 | RRIRPRPPRLPRPRPRPILNPRP | -0.339
54 | RRIRPRPPRLPRPRPRPIMMPRP | -0.199
55 | RRIRPRPPRLPRPRPRPINPPRP | -0.714
56 | RRIRPRPPRLPRPRPRPIPGPRP | 0.0171
57 | RRIRPRPPRLPRPRPRPITMPRP | -0.238
58 | RRIRPRPPRLPRPRPRPIYGPRP | -0.0498
59 | RRIRPRPPRLPRPRPRPIYVPRP | -0.348
60 | RRIRPRPPRLPRPRPRPKACPRP | 0.255
61 | RRIRPRPPRLPRPRPRPKANPRP | 0.0243
62 | RRIRPRPPRLPRPRPRPKDAPRP | 0.164
63 | RRIRPRPPRLPRPRPRPKDEPRP | 0.363
64 | RRIRPRPPRLPRPRPRPKFKPRP | 0.0351
65 | RRIRPRPPRLPRPRPRPKGQPRP | 0.205
66 | RRIRPRPPRLPRPRPRPKGVPRP | 0.000119

Row | Sequence | shrunken log2 fold change
67 | RRIRPRPPRLPRPRPRPKHFPRP | 0.328
68 | RRIRPRPPRLPRPRPRPKHKPRP | -0.0938
69 | RRIRPRPPRLPRPRPRPKLLPRP | -0.0549
70 | RRIRPRPPRLPRPRPRPKMTPRP | 0.0519
71 | RRIRPRPPRLPRPRPRPKNAPRP | -0.0349
72 | RRIRPRPPRLPRPRPRPKNGPRP | 0.069
73 | RRIRPRPPRLPRPRPRPKPDPRP | 0.0452
74 | RRIRPRPPRLPRPRPRPKQHPRP | -0.0393
75 | RRIRPRPPRLPRPRPRPKQTPRP | 0.327
76 | RRIRPRPPRLPRPRPRPKRTPRP | 0.0584
77 | RRIRPRPPRLPRPRPRPKTMPRP | 0.0176
78 | RRIRPRPPRLPRPRPRPKVFPRP | -0.0552
79 | RRIRPRPPRLPRPRPRPKWAPRP | 0.0222
80 | RRIRPRPPRLPRPRPRPKWVPRP | 0.111
81 | RRIRPRPPRLPRPRPRPKYIPRP | -0.433
82 | RRIRPRPPRLPRPRPRPLAEPRP | 0.322
83 | RRIRPRPPRLPRPRPRPLATPRP | 0.605
84 | RRIRPRPPRLPRPRPRPLCFPRP | 0.354
85 | RRIRPRPPRLPRPRPRPLCPPRP | -0.128
86 | RRIRPRPPRLPRPRPRPLDIPRP | -0.408
87 | RRIRPRPPRLPRPRPRPLESPRP | -0.0234
88 | RRIRPRPPRLPRPRPRPLFPPRP | -0.0198

Row | Sequence | shrunken log2 fold change
89 | RRIRPRPPRLPRPRPRPLFTPRP | -0.385
90 | RRIRPRPPRLPRPRPRPLGQPRP | 0.0471
91 | RRIRPRPPRLPRPRPRPLHMPRP | -0.342
92 | RRIRPRPPRLPRPRPRPLKCPRP | -0.131
93 | RRIRPRPPRLPRPRPRPLKFPRP | -0.368
94 | RRIRPRPPRLPRPRPRPLKKPRP | 0.295
95 | RRIRPRPPRLPRPRPRPLKQPRP | 0.0902
96 | RRIRPRPPRLPRPRPRPLMCPRP | -0.122
97 | RRIRPRPPRLPRPRPRPLMQPRP | 0.124
98 | RRIRPRPPRLPRPRPRPLMRPRP | 0.761
99 | RRIRPRPPRLPRPRPRPLPCPRP | -0.407
100 | RRIRPRPPRLPRPRPRPLPIPRP | -0.301
101 | RRIRPRPPRLPRPRPRPLPYPRP | -0.31
102 | RRIRPRPPRLPRPRPRPLQYPRP | -0.478
103 | RRIRPRPPRLPRPRPRPLSIPRP | -0.498
104 | RRIRPRPPRLPRPRPRPLVGPRP | 0.408
105 | RRIRPRPPRLPRPRPRPLWIPRP | -0.128
106 | RRIRPRPPRLPRPRPRPLYMPRP | -0.673
107 | RRIRPRPPRLPRPRPRPLYQPRP | -0.0164
108 | RRIRPRPPRLPRPRPRPLYTPRP | -0.37
109 | RRIRPRPPRLPRPRPRPMCVPRP | 0.076
